We go through five molecules from patent US20250026843A1 (ANHUI BIOX VISION BIOLOGICAL TECHNOLOGY, published 2025).

Sequences and labels used below:
T1: human CLDN18.2 expressed on the cell surface of HEK293 cells (human, UniProt P56856-2 1-261)
T1 construct: whole, on cells
T1 sequence (looked up): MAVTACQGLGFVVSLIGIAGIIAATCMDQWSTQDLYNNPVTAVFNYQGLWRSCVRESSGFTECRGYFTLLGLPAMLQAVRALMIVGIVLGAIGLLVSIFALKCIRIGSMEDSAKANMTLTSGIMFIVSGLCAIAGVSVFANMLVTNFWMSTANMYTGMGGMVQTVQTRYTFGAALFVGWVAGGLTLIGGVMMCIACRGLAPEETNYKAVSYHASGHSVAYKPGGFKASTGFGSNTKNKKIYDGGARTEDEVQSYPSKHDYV

T2: human CLDN18.1 expressed on the cell surface of HEK293 cells (human, UniProt P56856 1-261)
T2 construct: whole, on cells
T2 sequence (looked up): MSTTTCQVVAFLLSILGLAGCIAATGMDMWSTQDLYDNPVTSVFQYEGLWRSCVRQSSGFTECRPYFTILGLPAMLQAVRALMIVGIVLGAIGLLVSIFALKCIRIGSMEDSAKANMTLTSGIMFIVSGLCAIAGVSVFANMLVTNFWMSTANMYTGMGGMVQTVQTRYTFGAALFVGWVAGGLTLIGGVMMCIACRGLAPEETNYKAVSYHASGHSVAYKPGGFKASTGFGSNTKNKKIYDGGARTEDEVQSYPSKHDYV

B1: C8-WT-NA3S-HC (bispecific antibody, human IgG1, kappa, N297Q)
heavy: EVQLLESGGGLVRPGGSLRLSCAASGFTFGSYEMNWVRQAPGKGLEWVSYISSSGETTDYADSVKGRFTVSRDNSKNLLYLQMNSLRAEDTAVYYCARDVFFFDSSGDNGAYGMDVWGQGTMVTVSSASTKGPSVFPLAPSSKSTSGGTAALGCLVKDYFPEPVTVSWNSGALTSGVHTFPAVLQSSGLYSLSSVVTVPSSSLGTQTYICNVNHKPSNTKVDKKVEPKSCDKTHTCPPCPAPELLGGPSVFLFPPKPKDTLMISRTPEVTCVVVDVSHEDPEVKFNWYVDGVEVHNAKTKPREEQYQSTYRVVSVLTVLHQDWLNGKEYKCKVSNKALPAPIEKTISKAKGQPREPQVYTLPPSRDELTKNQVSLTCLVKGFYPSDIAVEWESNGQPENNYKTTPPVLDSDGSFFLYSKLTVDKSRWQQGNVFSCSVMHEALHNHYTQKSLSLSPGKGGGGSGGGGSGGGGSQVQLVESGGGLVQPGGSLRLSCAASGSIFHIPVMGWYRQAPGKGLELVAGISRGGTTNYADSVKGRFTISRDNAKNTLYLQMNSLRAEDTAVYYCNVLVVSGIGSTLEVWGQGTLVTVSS
light: DIQLTQSPSSLTASVGDRVTITCRSSQGIRSSLAWYQQKPGKPPKLLIYGASSLEGGVPSRFSGSGSGTDFTLTISSLQPEDFATYYCQQLNSFPSTFGQGTKLEIKRTVAAPSVFIFPPSDEQLKSGTASVVCLLNNFYPREAKVQWKVDNALQSGNSQESVTEQDSKDSTYSLSSTLTLSKADYEKHKVYACEVTHQGLSSPVTKSFNRGEC
notes: Fc is hIgG1 N297Q; also called anti-CD40×CLDN18.2 bispecific antibody; bispecific antibody of the present invention
B2: C8-6-NA3S-HC (bispecific antibody, human IgG1, kappa, N297Q)
heavy: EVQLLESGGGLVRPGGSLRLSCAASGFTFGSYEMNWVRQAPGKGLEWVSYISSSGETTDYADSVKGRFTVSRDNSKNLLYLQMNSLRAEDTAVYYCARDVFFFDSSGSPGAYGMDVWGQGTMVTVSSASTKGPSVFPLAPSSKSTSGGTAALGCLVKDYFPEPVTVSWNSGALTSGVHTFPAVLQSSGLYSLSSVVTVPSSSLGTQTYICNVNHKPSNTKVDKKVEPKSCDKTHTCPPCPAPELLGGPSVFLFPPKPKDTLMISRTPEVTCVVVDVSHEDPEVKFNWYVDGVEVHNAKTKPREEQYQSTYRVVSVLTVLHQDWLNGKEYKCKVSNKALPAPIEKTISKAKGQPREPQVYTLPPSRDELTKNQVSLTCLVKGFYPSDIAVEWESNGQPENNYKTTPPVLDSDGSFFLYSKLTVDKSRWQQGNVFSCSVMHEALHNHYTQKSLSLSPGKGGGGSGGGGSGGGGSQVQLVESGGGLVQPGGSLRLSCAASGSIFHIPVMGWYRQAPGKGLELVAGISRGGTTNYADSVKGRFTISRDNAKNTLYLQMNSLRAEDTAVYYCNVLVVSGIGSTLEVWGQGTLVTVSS
light: B1 light
notes: as for B1
B3: C8-10-NA3S-HC (bispecific antibody, human IgG1, kappa, N297Q)
heavy: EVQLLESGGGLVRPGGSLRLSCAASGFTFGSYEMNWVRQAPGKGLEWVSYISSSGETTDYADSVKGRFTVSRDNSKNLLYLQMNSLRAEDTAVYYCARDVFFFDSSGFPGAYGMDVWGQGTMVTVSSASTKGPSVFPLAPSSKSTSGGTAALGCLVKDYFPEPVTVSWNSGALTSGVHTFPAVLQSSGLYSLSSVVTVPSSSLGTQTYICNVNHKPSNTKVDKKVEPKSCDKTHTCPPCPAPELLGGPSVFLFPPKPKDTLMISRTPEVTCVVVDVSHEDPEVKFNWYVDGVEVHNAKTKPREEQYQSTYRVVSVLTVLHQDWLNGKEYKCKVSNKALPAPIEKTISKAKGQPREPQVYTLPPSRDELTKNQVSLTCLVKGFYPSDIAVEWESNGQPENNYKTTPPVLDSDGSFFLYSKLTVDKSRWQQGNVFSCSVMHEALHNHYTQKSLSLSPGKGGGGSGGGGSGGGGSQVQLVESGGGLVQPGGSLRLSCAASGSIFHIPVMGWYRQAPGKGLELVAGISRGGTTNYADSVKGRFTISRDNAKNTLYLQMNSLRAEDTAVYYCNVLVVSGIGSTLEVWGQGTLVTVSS
light: B1 light
notes: as for B1
B4: C8-2-NA3S-HC (bispecific antibody, human IgG1, kappa, N297Q)
heavy: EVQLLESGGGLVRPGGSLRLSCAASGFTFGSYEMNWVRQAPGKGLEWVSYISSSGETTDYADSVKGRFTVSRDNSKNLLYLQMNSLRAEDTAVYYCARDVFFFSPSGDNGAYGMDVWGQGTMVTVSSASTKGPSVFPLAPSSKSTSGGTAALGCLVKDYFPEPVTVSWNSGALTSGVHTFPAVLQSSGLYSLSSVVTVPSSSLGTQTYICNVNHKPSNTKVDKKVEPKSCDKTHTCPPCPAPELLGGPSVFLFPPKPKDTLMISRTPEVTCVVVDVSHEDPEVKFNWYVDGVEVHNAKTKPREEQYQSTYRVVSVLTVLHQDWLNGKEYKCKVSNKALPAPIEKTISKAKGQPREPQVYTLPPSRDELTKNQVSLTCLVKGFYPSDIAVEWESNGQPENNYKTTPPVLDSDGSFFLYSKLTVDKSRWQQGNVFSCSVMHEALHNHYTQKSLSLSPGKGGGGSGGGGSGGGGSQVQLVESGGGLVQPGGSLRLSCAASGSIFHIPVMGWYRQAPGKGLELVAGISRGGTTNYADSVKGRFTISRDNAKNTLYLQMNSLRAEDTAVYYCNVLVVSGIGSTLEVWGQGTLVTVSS
light: B1 light
notes: as for B1
B5: APX005 (antibody, V domains shown)
VH: QVQLVESGGGVVQPGRSLRLSCAASGFSFSSTYVCWVRQAPGKGLEWIACIYTGDGTNYSASWAKGRFTISKDSSKNTVYLQMNSLRAEDTAVYFCARPDITYGFAINFWGPGTLVTVSS
VL: DIQMTQSPSSLSASVGDRVTIKCQASQSISSRLAWYQQKPGKPPKLLIYRASTLASGVPSRFSGSGSGTDFTLTISSLQPEDVATYYCQCTGYGISWPIGGGTKVEIK

The target of the first assay is T3, P17-His fusion protein (extracellular domain of human CD40 with a His tag) (human, UniProt P25942 21-193).
T3 construct: range 21-193; not shown: His tag
T3 sequence (P25942 21-193 limits assumed): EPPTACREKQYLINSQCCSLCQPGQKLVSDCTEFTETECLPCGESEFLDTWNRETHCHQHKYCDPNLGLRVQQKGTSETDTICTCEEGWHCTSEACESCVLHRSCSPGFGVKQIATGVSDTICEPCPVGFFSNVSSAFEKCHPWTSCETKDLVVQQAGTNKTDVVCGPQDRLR
The experiment in a line: ELISA, P17-His coated on plate, anti-human Fc-HRP detection. The method, then:
The obtained 4 bispecific antibodies were detected for affinity against the extracellular domain of human CD40 (Uniprot: positions 21 to 193 of P25942) through ELISA. The extracellular domain of human CD40 carried a His tag, also referred to herein as a P17-His fusion protein.
2 μg/mL of the P17-His fusion protein was coated onto a 96-well ELISA plate at 30 μL per well at 4° C. overnight. The next day, after encapsulating in 5% PBSM (PBS+5% Milk) at room temperature for 2 h, serially diluted (20 nM in the first well, 10-fold dilution in the second well, 3-fold dilution in the third to seventh wells, and 4-fold dilution in the seventh to eighth wells) anti-CD40×CLDN18.2 bispecific antibody, positive control APX005 (sequence derived from Apexigen Inc. US20120301488A1, prepared in the laboratory), or isotype IgG1 negative control were added. After culturing at room temperature for 1 h, washed 3 times with PBST (PBS+0.05% Tween-20), and then 30 μL of Goat-anti-human-Fc-HRP (abcam, ab97225) was added. After culturing at room temperature for 1 h, washed 3 times with PBST (PBS+0.05% Tween-20), and TMB colorimetric solution was added for color development for 5 to 30 min. After termination, OD450 was detected through a microplate reader (Beckman Coulter), and the results were analyzed and plotted through Graphpad 7.0 to evaluate the binding of the bispecific antibody to the P17-His fusion protein.
(In general: An ELISA detects its analyte on a solid surface through an enzyme-linked reagent.)
The EC50 is the concentration giving half of the maximal effect. Turning to B1, a half-maximal effect (EC50) was put at 0.11 nM.

Molecule B2 registered an EC50 of 0.102 nM.

In the case of B3, the EC50 was determined as 0.104 nM.

Molecule B4 displayed an EC50 of 0.127 nM. The EC50 values of the last two molecules are within 1.5-fold of each other.

B5 yielded an EC50 of 0.0612 nM.

Another assay concerns the target T1, human CLDN18.2 expressed on the cell …. The experiment in a line: flow cytometry on 18.2-HEK293 cells. The method, then:
After culturing at 4° C. for 30 min, the cells were washed and added with 100 μL of 1:300 diluted Goat F(ab′)₂ Anti-human Fc (PE) and cultured for 30 min. The cells were then washed and the binding of the bispecific antibody to CLDN18.2 expressed on the surface of HEK293 cells was detected through flow cytometry.
A general note: Flow cytometry measures light scatter and fluorescence of single cells or particles in a stream.
As to B1, the binding result is given as “binds”.

On to B2, for which the binding result was “binds”.

Take B3: the binding result is “binds”.

In the case of B4, the binding result is “binds”.

A further assay has as its target T2, human CLDN18.1 expressed on the cell …. As to the kind of experiment: flow cytometry on 18.1-HEK293 cells. The method, then: After culturing at 4° C. for 30 min, the cells were washed and added with 100 μL of 1:300 diluted PE-labeled Goat F(ab′)₂ Anti-human Fc (PE) and cultured at 4° C. for 30 min. The cells were then washed and the binding of the bispecific antibody to CLDN18.1 molecules expressed on the surface of HEK293 cells was detected through flow cytometry.
On to B1, for which the binding result is on record as “no binding (tested: 115.6 nM highest concentration tested)”.

Take B2: the binding result is reported as “no binding (tested: 115.6 nM highest concentration tested)”.

As to B3, the binding result was “no binding (tested: 115.6 nM highest concentration tested)”.

As to B4, the binding result was “no binding (tested: 115.6 nM highest concentration tested)”.
